Results on 6 molecules are retold here after patent US10428140B2, “Anti-EphA4 antibody” (EISAI R&D MANAGEMENT CO., LTD., priority 2015, dated 2019).

To fix the notation:
T1: human EphA7 (Homo sapiens, UniProt Q15375)
T1 construct: a protein of the extracellular region of each human Eph receptor fused with the SEAP protein and the His tag; made in house; host or cells: Expi293F cells (culture supernatant)
T1 sequence (Q15375 28-555 limits assumed): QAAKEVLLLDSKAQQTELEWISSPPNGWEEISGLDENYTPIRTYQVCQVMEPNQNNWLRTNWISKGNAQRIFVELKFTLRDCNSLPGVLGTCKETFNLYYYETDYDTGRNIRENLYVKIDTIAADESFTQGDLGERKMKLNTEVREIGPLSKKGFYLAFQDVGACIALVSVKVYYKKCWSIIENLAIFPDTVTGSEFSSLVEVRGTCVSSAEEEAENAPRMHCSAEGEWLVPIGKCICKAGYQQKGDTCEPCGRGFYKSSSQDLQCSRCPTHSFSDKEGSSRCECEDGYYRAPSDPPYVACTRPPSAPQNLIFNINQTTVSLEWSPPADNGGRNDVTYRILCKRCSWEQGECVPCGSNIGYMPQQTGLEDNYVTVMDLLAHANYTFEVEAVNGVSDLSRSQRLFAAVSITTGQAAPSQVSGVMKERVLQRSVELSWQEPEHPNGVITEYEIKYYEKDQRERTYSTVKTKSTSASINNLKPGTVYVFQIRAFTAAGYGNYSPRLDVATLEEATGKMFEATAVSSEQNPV

T2: human EphB2 (Homo sapiens, UniProt P29323)
T2 construct: a protein of the extracellular region of each human Eph receptor fused with the SEAP protein and the His tag; made in house; host or cells: Expi293F cells
T2 sequence (P29323 19-543 limits assumed): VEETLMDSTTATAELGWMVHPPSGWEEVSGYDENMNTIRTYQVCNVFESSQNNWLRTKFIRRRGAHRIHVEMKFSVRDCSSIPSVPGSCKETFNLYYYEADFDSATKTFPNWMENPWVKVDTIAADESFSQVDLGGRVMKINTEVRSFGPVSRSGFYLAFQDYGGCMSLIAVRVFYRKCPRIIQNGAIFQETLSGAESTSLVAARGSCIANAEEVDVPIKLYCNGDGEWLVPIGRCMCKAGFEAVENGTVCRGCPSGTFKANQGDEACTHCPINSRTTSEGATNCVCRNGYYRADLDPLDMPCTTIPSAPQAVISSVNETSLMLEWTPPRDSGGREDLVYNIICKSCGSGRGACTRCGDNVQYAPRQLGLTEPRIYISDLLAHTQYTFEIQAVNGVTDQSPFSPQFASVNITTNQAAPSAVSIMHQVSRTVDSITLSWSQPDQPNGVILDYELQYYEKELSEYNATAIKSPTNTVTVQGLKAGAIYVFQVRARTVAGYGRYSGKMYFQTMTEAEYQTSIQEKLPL

B1: 76 (antibody, V domains shown)
VH: QVQLVQSGSELKKPGASVKVSCKASGYTFTDYSMHWVRQAPGQGLKWMGWINTETGEPTYAQGFTGRFVFSLDTSVSTAYLQISSLKAEDTAVYYCARIPLYYYGSRYWYFDVWGQGTTVTVSS
VL: DIQMTQSPSSLSASVGDRVTITCRASENIYRNLAWYQQKPGKAPKLLVYAATNLADGVPSRFSGSGSGTDYTLTISSLQPEDFATYYCQHFWGTPWTFGQGTKVEIK
modifications: synthetic humanized antibody heavy chain variable region sequence; synthetic humanized antibody light chain variable region sequence
B2: 77 (antibody, V domains shown)
VH: B1 VH with K46E, Q62D, G63D, T65K
VL: B1 VL
modifications: synthetic humanized antibody heavy chain variable region sequence; synthetic humanized antibody light chain variable region sequence
B3: 67 (antibody, V domains shown)
VH: B1 VH with V2I
VL: B1 VL
modifications: synthetic humanized antibody heavy chain variable region sequence; synthetic humanized antibody light chain variable region sequence
B4: 136 (antibody, V domains shown)
VH: B1 VH with Q62D, G63D, T65K
VL: EIVMTQSPATLSVSPGERATLSCRASENIYRNLAWYQQKPGQSPRLLIYAATNLADGIPARFSGSGSGTEYTLTISSLQSEDFAVYYCQHFWGTPWTFGQGTKVEIK
modifications: synthetic humanized antibody heavy chain variable region sequence; synthetic humanized antibody light chain variable region sequence
B5: 156 (antibody, V domains shown)
VH: B1 VH with V2I
VL: B1 VL with K45Q, V48L
modifications: synthetic humanized antibody heavy chain variable region sequence; synthetic humanized antibody light chain variable region sequence
B6: 78 (antibody, V domains shown)
VH: B1 VH with Q62D, G63D, T65K
VL: B1 VL
modifications: synthetic humanized antibody heavy chain variable region sequence; synthetic humanized antibody light chain variable region sequence

Substitutions are numbered along the chain they refer to.

T4 sequence (P54756 25-573 limits assumed): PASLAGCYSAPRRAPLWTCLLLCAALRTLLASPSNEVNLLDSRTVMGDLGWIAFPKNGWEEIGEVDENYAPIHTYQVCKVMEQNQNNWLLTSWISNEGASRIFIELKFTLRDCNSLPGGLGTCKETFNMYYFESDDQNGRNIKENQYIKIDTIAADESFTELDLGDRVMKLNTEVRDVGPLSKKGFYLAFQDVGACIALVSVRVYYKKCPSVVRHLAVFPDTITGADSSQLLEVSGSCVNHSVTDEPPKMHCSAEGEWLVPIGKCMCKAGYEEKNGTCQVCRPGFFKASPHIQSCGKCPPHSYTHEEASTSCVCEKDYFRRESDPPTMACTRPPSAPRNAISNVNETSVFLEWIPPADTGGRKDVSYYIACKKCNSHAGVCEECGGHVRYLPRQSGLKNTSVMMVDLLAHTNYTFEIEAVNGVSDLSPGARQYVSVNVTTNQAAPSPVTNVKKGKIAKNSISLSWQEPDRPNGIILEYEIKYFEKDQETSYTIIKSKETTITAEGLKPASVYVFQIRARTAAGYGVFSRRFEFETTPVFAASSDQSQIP

The target of one test is T3, human EphA4 (Homo sapiens, UniProt P54764).
T3 construct: made in house; not restated for the human SEAP-His protein
T3 sequence (P54764 20-547): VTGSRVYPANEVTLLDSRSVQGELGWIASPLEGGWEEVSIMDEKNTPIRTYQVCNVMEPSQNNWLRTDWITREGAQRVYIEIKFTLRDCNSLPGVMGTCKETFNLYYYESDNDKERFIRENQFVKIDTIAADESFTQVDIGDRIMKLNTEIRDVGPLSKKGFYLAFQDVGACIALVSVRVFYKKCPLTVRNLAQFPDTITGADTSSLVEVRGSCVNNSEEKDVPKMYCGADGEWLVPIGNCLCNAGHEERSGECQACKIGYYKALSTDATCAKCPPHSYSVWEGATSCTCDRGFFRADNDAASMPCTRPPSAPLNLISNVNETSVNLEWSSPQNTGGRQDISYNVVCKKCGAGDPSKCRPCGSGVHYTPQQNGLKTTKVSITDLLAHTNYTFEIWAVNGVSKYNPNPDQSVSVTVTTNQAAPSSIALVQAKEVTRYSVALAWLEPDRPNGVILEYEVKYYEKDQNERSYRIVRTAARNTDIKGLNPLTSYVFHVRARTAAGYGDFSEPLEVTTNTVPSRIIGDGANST
The experiment in a line: Selectivity ELISA of humanized antibodies for human Eph receptor. In kind it is binding. The settings on record: coated protein 1 nM; reference set to 100%. A digest of the protocol:
(§1)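 Read-out is A450 after TMB development stopped with 1N H2SO4. Plates bore anti-His-captured human Eph extracellular region-SEAP-His proteins at 1 nM final, made in Expi293F cells. Humanized antibody binding ran 1 h at room temperature before HRP-labeled anti-IgG detection.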
A general note: In an ELISA, binding on a coated surface is turned into a signal by an enzyme label.
Regarding B1, the “hEphA4-SEAP-: absorbance at 450 nm, percentage with respect to hEphA4-SEAP-His as 100%” value is recorded as 100%.
Regarding B2, the “hEphA4-SEAP-: absorbance at 450 nm, percentage with respect to hEphA4-SEAP-His as 100%” value is 100%.
As for B3, the “hEphA4-SEAP-: absorbance at 450 nm, percentage with respect to hEphA4-SEAP-His as 100%” value is reported as 100%.
On to B4, for which the “hEphA4-SEAP-: absorbance at 450 nm, percentage with respect to hEphA4-SEAP-His as 100%” value turned out to be 100%.
Regarding B5, the “hEphA4-SEAP-: absorbance at 450 nm, percentage with respect to hEphA4-SEAP-His as 100%” value amounted to 100%.
Turning to B6, the “hEphA4-SEAP-: absorbance at 450 nm, percentage with respect to hEphA4-SEAP-His as 100%” value was 100%.

Another test addresses T4, human EphA5 (Homo sapiens, UniProt P54756).
T4 construct: a protein of the extracellular region of each human Eph receptor fused with the SEAP protein and the His tag; made in house; host or cells: Expi293F cells (culture supernatant)
The description is as above. In kind it is binding. The settings on record: coated protein 1 nM. A digest of the protocol:
as §1
As for B1, the “hEphA5-SEAP-: absorbance at 450 nm, percentage with respect to hEphA4-SEAP-His as 100%” value is listed as 5.3%.
Turning to B2, the “hEphA5-SEAP-: absorbance at 450 nm, percentage with respect to hEphA4-SEAP-His as 100%” value is 4.4%.
B3: the “hEphA5-SEAP-: absorbance at 450 nm, percentage with respect to hEphA4-SEAP-His as 100%” value is recorded as 4.8%.
Regarding B4, the “hEphA5-SEAP-: absorbance at 450 nm, percentage with respect to hEphA4-SEAP-His as 100%” value turned out to be 5.2%.
In the case of B5, the “hEphA5-SEAP-: absorbance at 450 nm, percentage with respect to hEphA4-SEAP-His as 100%” value was found to be 5.7%.
In the case of B6, the “hEphA5-SEAP-: absorbance at 450 nm, percentage with respect to hEphA4-SEAP-His as 100%” value is 5.1%.

The next test has as its target T1, human EphA7. The test is described as above. In kind it is binding. The note with it: coated protein 1 nM. A digest of the protocol: as §1
Regarding B1, the “hEphA7-SEAP-: absorbance at 450 nm, percentage with respect to hEphA4-SEAP-His as 100%” value was determined as 4.8%.
For B2, the “hEphA7-SEAP-: absorbance at 450 nm, percentage with respect to hEphA4-SEAP-His as 100%” value is listed as 4.3%.
B3: the “hEphA7-SEAP-: absorbance at 450 nm, percentage with respect to hEphA4-SEAP-His as 100%” value is reported as 4.7%.
Take B4: the “hEphA7-SEAP-: absorbance at 450 nm, percentage with respect to hEphA4-SEAP-His as 100%” value is reported as 5.4%.
As for B5, the “hEphA7-SEAP-: absorbance at 450 nm, percentage with respect to hEphA4-SEAP-His as 100%” value is reported as 5.6%.
Still for that read-out and setting: in the case of B6 it was 5.0%.

The target of the next test is T2, human EphB2. The test is described as above. In kind it is binding. The note with it: coated protein 1 nM. In outline:
as §1
In the case of B1, the “hEphB2-SEAP-: absorbance at 450 nm, percentage with respect to hEphA4-SEAP-His as 100%” value amounted to 4.9%.
In the case of B2, the “hEphB2-SEAP-: absorbance at 450 nm, percentage with respect to hEphA4-SEAP-His as 100%” value is recorded as 4.5%.
B3: the “hEphB2-SEAP-: absorbance at 450 nm, percentage with respect to hEphA4-SEAP-His as 100%” value is given as 4.7%.
Still for that read-out and setting: in the case of B4 it was 5.3%; in that of B5, 5.5%; in that of B6, 5.1%.
